From the supplement of paper PMC9170038 come the findings set out here.

This series has as its system K4 kissing-loop RNA reporter. The series is described as follows: apparent KD of K4 kissing-loop reporter; higher = weaker reporter binding. As to conditions: Eterna round: R107. As for the experimental part: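 RNA-MaP round R107: designed RNA switches with theophylline, tryptophan, arginine or FMN aptamers are transcribed on-chip within common flanks. They are titrated with a labelled K4 kissing-loop RNA reporter in RNA-MaP buffer (100 mM Tris pH 7.5, 80 mM KCl, 4 mM MgCl2), without ligand or with the indicated ligand. Median apparent KD per design.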

Where [1] appears, read: input ligand: theophylline 20 uM.
Setting [2] is: input ligand: tryptophan 2.4 mM.
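Note: bound reporter read as fluorescence of individual clusters on recovered sequencing chips by microscopy, with normalized cluster intensities fitted with a binding model.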

With “AGUAGUUGGGCGGCCGCCACUGGAACAGCUUUGCCAAAGGCAGAGCACUAGAGUGAUGUUCUAGCUAGGACCGGGUCCAACUACA [whbob_SS_Tryp_B_t17]”, the “apparent KD of K4 kissing-loop reporter” value stood at 588 nM (input ligand: FMN 200 uM); 250 nM (input ligand: arginine 13.2 mM); 444 nM (input ligand: none); 252 nM under setting [1]; 1220 nM under setting [2].

For “AGUAUAGAGUCGGCCGCCACUGGUUUUAUGUGUGUCAAAUCUGGAUCAAAGUGAUGUUUUGAGACUAGGACCGGGACCAUUGUUA [#06 K4 Tryptophan B Exclusion]”, the “apparent KD of K4 kissing-loop reporter” value runs as follows: (input ligand: FMN 200 uM) 160 nM; (input ligand: arginine 13.2 mM) 139 nM; (input ligand: none) 145 nM; under setting [1], 131 nM; under setting [2], 206 nM.

As to “AGUAUGUAAUAUGGCAUAUUUAGAACUGAAGGAGCGCCGAAUAAGGCAGGUAGGUCGCGGAAAUAUGAGUGAUGUUCAUGUUUAA [KL-SSArg-A25]”, the “apparent KD of K4 kissing-loop reporter” value came out at 88 nM (input ligand: FMN 200 uM); 103 nM (input ligand: arginine 13.2 mM); 101 nM (input ligand: none); 113 nM under setting [1]; 82.8 nM under setting [2].

Consider “AGUCCUAUGACGGCCGCCACUCCGGUUAUGAUUUGCCAAGUGAUGUUUGGGUAUCAGGCGAGGCGGAGGACCGGGUCGACCUGCC [theeternabot_exclusion_KL_Trp_B_18]”, for which the “apparent KD of K4 kissing-loop reporter” value runs as follows: (input ligand: FMN 200 uM) 171 nM; (input ligand: arginine 13.2 mM) 139 nM; (input ligand: none) 151 nM; under setting [1], 129 nM; under setting [2], 152 nM.

Turning to “AGUGAACGAGCGGCCGCCACUAAAUGAGUGAUGUUCGUGAGUAGUGCUGUUCUCAUGAUUGUUUUUAGGACCGGGUUCGAUGUUG [edcclmullin]”, the “apparent KD of K4 kissing-loop reporter” value runs as follows: (input ligand: FMN 200 uM) 937 nM; (input ligand: arginine 13.2 mM) 739 nM; (input ligand: none) 762 nM; under setting [1], 576 nM; under setting [2], 662 nM.

With “AGUGACGAGUGAUGUUCGUGAACACUGGAUACCAGCAGUCUUAUCUGCCCUUGGCAGCCAACGGGAACCGAAUGUUAAGACCUGU [theeternabot_exclusion_KL_Theo_A_4]”, the “apparent KD of K4 kissing-loop reporter” value reads like this: (input ligand: FMN 200 uM) 132 nM; (input ligand: arginine 13.2 mM) 114 nM; (input ligand: none) 129 nM; under setting [1], 149 nM; under setting [2], 121 nM.

Consider “AGUGAUGUGGGAAGGAGCGGUAUAAGAAUUCAGUGAUGUUGAAGUGUUGCUGUAAUAAAGAGCCAGGUAGGUCGCCUAGAUGUUA [KL-XARG B30]”, for which the “apparent KD of K4 kissing-loop reporter” value runs as follows: (input ligand: FMN 200 uM) 811 nM; (input ligand: arginine 13.2 mM) 775 nM; (input ligand: none) 940 nM; under setting [1], 1120 nM; under setting [2], 562 nM.

Take “AGUGAUGUGGGAAGGAGCGGUAUAUGAAUUCAGUGAUGUUGAAGUGAUGCUGUAAUGAUGUGCCAGGUAGGUCGCCUAGAUGUUA [KL-XARG B26]”: the “apparent KD of K4 kissing-loop reporter” value reads like this: (input ligand: FMN 200 uM) 267 nM; (input ligand: arginine 13.2 mM) 161 nM; (input ligand: none) 244 nM; under setting [1], 171 nM; under setting [2], 187 nM.

Take “AGUGAUGUGGGAAGGAGCGGUAUAUGAGUUCAGUGAUGUUGAAGUGAUGAUAUAGUGAUGUGCCAGGUAGGUCGCCUAGAUGUUA [KL-XARG-B5]”: the “apparent KD of K4 kissing-loop reporter” value reads like this: (input ligand: FMN 200 uM) 281 nM; (input ligand: arginine 13.2 mM) 144 nM; (input ligand: none) 210 nM; under setting [1], 146 nM; under setting [2], 202 nM.

As for “AGUGAUGUGGGAAGGAGCGGUUAAUGAAUUCAGUGAUGUUGAAGUGAUGCUGAAAUGAUGUGCCAGGUAGGUCGCCUAGAUGUUA [KL-XARG B28]”, the “apparent KD of K4 kissing-loop reporter” value came out at 308 nM (input ligand: FMN 200 uM); 164 nM (input ligand: arginine 13.2 mM); 245 nM (input ligand: none); 164 nM under setting [1]; 203 nM under setting [2].

Turning to “AGUGCCGAGUGUGAUACCAGCUUCAUGCAGUGAUGUUGCACACGAGUGAUGUUCGUCCGAGGCCCUUGGCAGCGCAGUCGCUCGA [Same State Theophylline B Gf 30]”, the “apparent KD of K4 kissing-loop reporter” value by setting is: (input ligand: FMN 200 uM) 751 nM; (input ligand: arginine 13.2 mM) 807 nM; (input ligand: none) 885 nM; under setting [1], 711 nM; under setting [2], 670 nM.

On to “AGUGUGCAAAAGCACACUCAGUACAAGGACAAGGAUAUCUACUAAUAGAGAAGGUGUCCUUUCCUUAGUGAUGUUAAGGAACUGA [Omei KL FMN A SS D v3]”, for which the “apparent KD of K4 kissing-loop reporter” value runs as follows: (input ligand: FMN 200 uM) 205 nM; (input ligand: arginine 13.2 mM) 500 nM; (input ligand: none) 617 nM; under setting [1], 657 nM; under setting [2], 595 nM.

With “AGUUCUUGCCGAAGGAGCGAGGCAGAGUGAUGUUCUGCAAGAGGUCGAAAGACCUCACUGCCUCAGGUAGGUCGCGGCAUGAACA [Omei KL Arginine B Exc A v4]”, the “apparent KD of K4 kissing-loop reporter” value reads like this: (input ligand: FMN 200 uM) 801 nM; (input ligand: arginine 13.2 mM) 509 nM; (input ligand: none) 930 nM; under setting [1], 602 nM; under setting [2], 1050 nM.

Turning to “AGUUUAGAGUGACUCGAUAAGAGUCACAAACGAGGACCGGUACGGCCGCCACUCGAAAUAACGAGAGUGAUGUUCUCGCUGGGUA [FiskerMod 4 - Jieux - Same State Tryptophan A]”, the “apparent KD of K4 kissing-loop reporter” value by setting is: (input ligand: FMN 200 uM) 317 nM; (input ligand: arginine 13.2 mM) 330 nM; (input ligand: none) 342 nM; under setting [1], 317 nM; under setting [2], 93.3 nM.

As to “AUACAUGUAAAUCUAUAUGUAUAAUGGAGCCGAGGACCGGUACGGCCGCCACUCGGAGUAAUCGGAGUGAUGUUCCGAAAUGUAC [KL-SSTryp-A sub13]”, the “apparent KD of K4 kissing-loop reporter” value came to 93.7 nM (input ligand: FMN 200 uM); 119 nM (input ligand: arginine 13.2 mM); 104 nM (input ligand: none); 123 nM under setting [1]; 64.6 nM under setting [2].

For the sequence “AUAUGCAGGAGAAGGAGCGUCGUUUCAAGUGAUGUUUGCAAGCGAGCUUACUAUAUAAGACGACAGGUAGGUCGCUCCUGCGUAA [#06 K4 Arginine B Exclusion]”, the “apparent KD of K4 kissing-loop reporter” value reads like this: (input ligand: FMN 200 uM) 166 nM; (input ligand: arginine 13.2 mM) 150 nM; (input ligand: none) 155 nM; under setting [1], 141 nM; under setting [2], 149 nM.

Take “AUAUUUAUUUAGUCACUUUUCAUAUUAUGUCAGGAUAUCGUAUUUUCGAGAAGGGACUCAUGGUAGUGAUGUUACCUAUUUCUCA [#03 K4 FMN A Exclusion]”: the “apparent KD of K4 kissing-loop reporter” value was 196 nM (input ligand: FMN 200 uM); 382 nM (input ligand: arginine 13.2 mM); 387 nM (input ligand: none); 404 nM under setting [1]; 303 nM under setting [2].

Regarding “AUCAUUAGUUCGGCCGCCACUCCAGUGAUGUUGGAGGGACGCAUAAUAUGCGCGCGGCUAACUAGGAGGACCGGGAACUUUAGGC [Maonce]”, the “apparent KD of K4 kissing-loop reporter” value is, setting by setting: (input ligand: FMN 200 uM) 82.8 nM; (input ligand: arginine 13.2 mM) 115 nM; (input ligand: none) 133 nM; under setting [1], 86.9 nM; under setting [2], 156 nM.

For “AUGAGGUGACUAAAUAAUAAGGGAAUUGAUACCAGACAGAAUUCUGUCCCUUGGCAGCAGUGAUGUUGUUGCAAGUCAGCUCAAA [AK1.1 Exc Theophylline A]”, the “apparent KD of K4 kissing-loop reporter” value (input ligand: FMN 200 uM) worked out at 265 nM; the “apparent KD of K4 kissing-loop reporter” value (input ligand: arginine 13.2 mM) is 186 nM; the “apparent KD of K4 kissing-loop reporter” value (input ligand: none) was 206 nM; the “apparent KD of K4 kissing-loop reporter” value under setting [1] turned out to be 198 nM; the “apparent KD of K4 kissing-loop reporter” value under setting [2] is 212 nM.

In the case of “AUGCGCGCGGCGGCCGCCACUCGCAUGAGAGUGAUGUUCUCGCCGGGCCCGCAAGGGCCCGGUGUGAGGACCGGGCCGGGCUGCG [#2 Same State - Tryptophan B Attempt #18 (HarryS)]”, the “apparent KD of K4 kissing-loop reporter” value is 632 nM (input ligand: FMN 200 uM); 0.441 nM (input ligand: arginine 13.2 mM); 257 nM (input ligand: none); 193 nM under setting [1]; 136 nM under setting [2].

As to “AUGCGCGCGGCGGCCGCCACUCGCAUGAGAGUGAUGUUCUCGCCGUGCCCGUAAGGGUGCGGUGUGAGGACCGGGCCGGGCUGCG [#2 Same State - Tryptophan B Attempt #20 (HarryS)]”, the “apparent KD of K4 kissing-loop reporter” value (input ligand: FMN 200 uM) is 204 nM; the “apparent KD of K4 kissing-loop reporter” value (input ligand: arginine 13.2 mM) was found to be 107 nM; the “apparent KD of K4 kissing-loop reporter” value (input ligand: none) is 227 nM; the “apparent KD of K4 kissing-loop reporter” value under setting [1] came to 37.5 nM; the “apparent KD of K4 kissing-loop reporter” value under setting [2] is 239 nM.
